PMC6123711, “Conformational signatures in β-arrestin2 reveal natural biased agonism at a G-protein-coupled receptor” (Communications Biology, 2018)
Entries after “also recorded” stand apart in the source; their conditions may differ. Values belong to the molecule of their own block, whether it stands above or below them.

How the values were obtained:
mice = conditions: cited from earlier work
From the text: (§1) G-protein-coupled receptors (GPCRs) are the largest family of cell surface receptors that communicate extracellular stimuli to the cell interior[1]. Biased ligands are of particular interest because they offer the possibility to design a novel class of therapeutic agents. In some GPCRs, biased ligands that preferentially activate G-protein-dependent signaling have therapeutic potential. […] Most descriptions of biased ag ...

Galr2 = Galr2 internalization assay based on HiBiT technology; format: cell-based, human; conditions: HEK293 cells; agonist 30 min; two independent experiments in triplicate
Procedure: The HiBiT protein tagging system, like NanoBiT technology, consists of two subunits: the large fragment (LgBiT) with 156 amino acids and the small fragment of Nluc (SmBiT-High-affinity) with only 11 amino acids that has a very high affinity to LgBit. To quantify Galr2 at the cell surface, cells expressing Galr2 tagged with the SmBiT-High-affinity were treated with cell-impermeable LgBiT along with the Nluc substrate furimazine. SmBiT-High-affinity-Galr2 on the cell surface binds to LgBiT which produces a luminescent signal, while SmBiT-High-affinity-Galr2 inside the cells cannot bind to LgBiT (Fig. 4a).
Fig. 4 Internalization of Galr2. a Schematic representation of the internalization assay. […] Before ligand stimulation, cells were pretreated with 30 μM Cmpd101 (a GRK2/3 inhibitor) for 30 min, 25 μM PitStop 2 (a Clathrin inhibitor) for 15 min, and 80 μM Dynasore (a Dynamin inhibitor) for 40 min. […] Remaining cell surface receptors were determined by measuring the luminescent signal produced by the binding between LgBiT and the Galr2-SmBiT-High affinity. Each data point represents mean ± s. e. m. of two independent experiments performed in triplicate
Quantification of bias between each pathway was performed using Galanin as a reference ligand. All incubations for the different signaling assays were performed in serum-free medium to prevent peptide degradation.
Internalization assays were performed using the Nano-Glo HiBiT extracellular detection system acquired from Promega Corporation (Cat. No. N2421). The day before transfection, HEK293 cells were seeded in 96-well plates at a density of 2.5 × 10^4 cells per well. The following day, cells were transfected with a mixture prepared containing 0.5 ng of SmBiT-high-affinity-Galr2 construct and 0.2 μl Lipofectamine 2000 (Invitrogen) added to each well. […] Then luminescence values were recorded immediately (Synergy 2 Multi-Mode Microplate Reader BioTek). […]

[1] = biological target: T1, Galr2–β-arrestin2 complex (Homo sapiens, UniProt O43603); assay: Reversal assay for dissociation kinetics; format: cell-based
T1 construct: expressed in transfected cells; host or cells: HEK293 cells, transient transfection with Lipofectamine 2000; b62 only says 'the cells'
Procedure: The decay of the luminescent signal may reflect dissociation rate of ligand from Galr2 as the β-arrestin2 response returns to basal levels in washout experiments.
Ligand removal was performed by simply changing the medium containing no ligand and then immediately continue measuring luminescence. Samples with no ligand removal were used as a control. […] The results are expressed as the mean ± s.e.m. values of two independent experiments
One day before transfection, the cells were seeded in 96-well plates at a density of 2.5 × 10^4 cells per well. […] At 24 h post transfection, the medium was aspirated and replaced with 100 μl OPTIMEM and incubated at room temperature. After a 10-min incubation, 25 μl substrate (furimazine) was added, and once every minute subsequent luminescence measurements were taken for 10 min for signal stabilization. A total of 10 μl ligand was then added to each well and luminescence measurements were recorded immediately and once every minute during 10 min for signal stabilization. After that time wells allocated for ligand removal, ligand containing medium was replaced for medium containing only furimazine substrate and no ligand. Immediately continued recording the time course luminescence values once every minute during 1 h.

[2] = tested on: luteinizing hormone (LH) secretion; conditions: cited from earlier work
From the text: as §1

goldfish = conditions: cited from earlier work
From the text: as §1

[3] = tested on: diet-induced obese rodents; conditions: cited from earlier work
From the text: as §1

[4] = tested on: galanin receptor 1 (Galr1); conditions: cited from earlier work
From the text: as §1

T1 sequence (O43603 whole entry): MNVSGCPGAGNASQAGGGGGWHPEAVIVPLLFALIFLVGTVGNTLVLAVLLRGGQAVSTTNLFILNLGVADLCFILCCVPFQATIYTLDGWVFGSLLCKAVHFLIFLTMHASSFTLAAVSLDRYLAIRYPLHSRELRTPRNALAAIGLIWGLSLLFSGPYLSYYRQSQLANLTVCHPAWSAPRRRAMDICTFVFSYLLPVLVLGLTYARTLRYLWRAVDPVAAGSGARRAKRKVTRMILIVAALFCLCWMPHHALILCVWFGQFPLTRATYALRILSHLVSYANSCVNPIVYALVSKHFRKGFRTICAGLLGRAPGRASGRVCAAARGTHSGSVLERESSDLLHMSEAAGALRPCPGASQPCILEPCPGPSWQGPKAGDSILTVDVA
T1 sequence (P32121 whole entry partner): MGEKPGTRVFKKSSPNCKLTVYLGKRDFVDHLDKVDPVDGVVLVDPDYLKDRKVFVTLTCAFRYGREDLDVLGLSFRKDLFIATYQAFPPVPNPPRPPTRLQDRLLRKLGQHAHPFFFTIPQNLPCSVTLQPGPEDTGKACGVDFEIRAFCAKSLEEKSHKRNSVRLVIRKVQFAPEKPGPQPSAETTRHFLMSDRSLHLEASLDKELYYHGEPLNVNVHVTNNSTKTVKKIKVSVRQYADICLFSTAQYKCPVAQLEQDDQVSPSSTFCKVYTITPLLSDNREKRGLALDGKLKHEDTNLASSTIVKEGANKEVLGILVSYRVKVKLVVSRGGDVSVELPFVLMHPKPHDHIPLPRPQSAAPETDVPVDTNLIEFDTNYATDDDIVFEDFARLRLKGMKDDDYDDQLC

Molecule: Galanin [reference compound]
food intake (mice): food intake increase | Galr2 internalization (decrease of cell-surface luminescent signal) (Galr2): significantly decreased the luminescent signal in a dose-dependent manner; also recorded: efficiently induced internalization in a dose-dependent manner

half-life (t1/2) of Galr2–β-arrestin2 complex luminescence decay after ligand removal ([1]; HEK293 cells, 10 μM agonist, washout, indirect measure of ligand dissociation, mean ± s.e.m. of two independent experiments): 3.35 ± 0.7 min | residence time relative to Galanin ([1]; reversal dissociation assay): significantly shorter than Galanin
B1: Spexin (peptide, UniProt Q9BT56 27-116, looked up)
Spexin: APQRLLERRNWTPQAMLYLKGAQGRRFISDQSRRKDLSDRPLPERRSPNPQLLTIPEAATILLASLQKSPEDEEKNFDQTRFLEDSLLNW
modifications: Spexin
notes: endogenous peptide ligand of Galr2 and Galr3; synthesized by AnyGen
decrease in luminescence signal after ligand removal ([1]; 10 μM agonist, medium change, two independent experiments): rapid decrease in luminescence signal back to basal levels | LH secretion, goldfish [2]: attenuates LH secretion | appetite (goldfish): suppresses appetite | body weight [3]: weight loss | activation of Galr1 [4]: does not activate Galr1 | Galr2 internalization (decrease of cell-surface luminescent signal) (Galr2): marginally induce internalization of the receptor; also recorded: Galr2 internalization was not detected; also recorded: did not detect Galr2 internalization
